Assay results reported in patent US20240084280A1.

Biological target: integrin alpha(IIb)beta(3) (UniProt P08514)
Assay: cell-based or functional assay

B1: trimucrin variant RR (protein)
chain: EAGEECDCGSPENPCCDAATCKLRPGAQCAEGLCCDQCRFKKKRTICRRAKGDRRDDRCTGQSADCPRNRLYG
  IC50: platelet aggregation (ADP-induced, platelet-rich plasma): 52.5 nM
